Tests used:
[1] = target: CALRmut on CD34+ cells isolated from CALRmut MPN patients; assay: cell-based or functional assay
[2] = target: T1, Flag/6xhis-CALRdel52 (CALRW12.007) (human, UniProt P27797 18-417); assay: SPR, forced degradation: Metal Ox
T1 construct: also called human CALRdel52
T1 sequence (looked up): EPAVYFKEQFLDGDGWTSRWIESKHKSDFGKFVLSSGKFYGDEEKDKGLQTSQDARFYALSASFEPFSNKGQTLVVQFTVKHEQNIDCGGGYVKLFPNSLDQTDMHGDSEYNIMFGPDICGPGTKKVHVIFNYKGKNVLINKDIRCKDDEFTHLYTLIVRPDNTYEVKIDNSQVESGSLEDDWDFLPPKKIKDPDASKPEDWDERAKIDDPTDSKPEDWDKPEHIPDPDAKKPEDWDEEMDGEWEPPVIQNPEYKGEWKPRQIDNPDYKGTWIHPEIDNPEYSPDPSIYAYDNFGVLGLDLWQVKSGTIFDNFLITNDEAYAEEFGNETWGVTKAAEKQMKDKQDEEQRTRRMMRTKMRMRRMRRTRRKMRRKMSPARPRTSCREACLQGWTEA

[3] = target: T2, Avi/his-CalR-Ins5 (CALRW28.004) (human, UniProt P27797 18-417, limits assumed); assay: SPR, forced degradation: Metal Ox
T2 construct: also called human CALRins5
T2 sequence (looked up): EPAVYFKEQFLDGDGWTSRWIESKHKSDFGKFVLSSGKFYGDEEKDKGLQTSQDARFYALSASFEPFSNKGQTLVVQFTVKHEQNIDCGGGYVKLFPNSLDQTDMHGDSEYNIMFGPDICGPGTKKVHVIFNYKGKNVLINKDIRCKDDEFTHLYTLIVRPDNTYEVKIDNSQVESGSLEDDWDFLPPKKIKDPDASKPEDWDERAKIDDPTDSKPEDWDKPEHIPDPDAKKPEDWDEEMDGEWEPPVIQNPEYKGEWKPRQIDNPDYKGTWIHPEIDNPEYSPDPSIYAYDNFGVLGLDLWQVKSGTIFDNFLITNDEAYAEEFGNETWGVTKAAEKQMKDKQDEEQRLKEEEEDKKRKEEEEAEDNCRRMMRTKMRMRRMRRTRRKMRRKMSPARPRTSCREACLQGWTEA

[4] = target: T3, CD3EG-HSA-6xHis (CD3W220.002) (human, UniProt P07766 22-118; P09693 23-103); assay: SPR, forced degradation: Metal Ox
T3 construct: also called human CD3; not shown: human serum albumin (HSA); 6xHis tag
T3 sequence (P07766 other isoform, or with tags, fused parts or gaps): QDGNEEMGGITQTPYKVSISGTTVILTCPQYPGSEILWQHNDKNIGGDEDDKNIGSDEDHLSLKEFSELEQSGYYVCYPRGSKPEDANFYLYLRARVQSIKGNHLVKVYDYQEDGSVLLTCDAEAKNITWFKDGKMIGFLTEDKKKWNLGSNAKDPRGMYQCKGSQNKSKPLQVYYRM

[5] = target: T1, Flag/6xhis-CALRdel52 (CALRW12.007); assay: SPR, forced degradation: Chem Ox
[6] = target: T2, Avi/his-CalR-Ins5 (CALRW28.004); assay: SPR, forced degradation: Chem Ox
[7] = target: T3, CD3EG-HSA-6xHis (CD3W220.002); assay: SPR, forced degradation: Chem Ox
[8] = target: T4, CALRdel52 (mutant calreticulin, 52 base pair deletion, Type 1) expressed with MPL on engineered cancer cells (UniProt P27797 18-417); assay: cell-based or functional assay
T4 sequence (looked up): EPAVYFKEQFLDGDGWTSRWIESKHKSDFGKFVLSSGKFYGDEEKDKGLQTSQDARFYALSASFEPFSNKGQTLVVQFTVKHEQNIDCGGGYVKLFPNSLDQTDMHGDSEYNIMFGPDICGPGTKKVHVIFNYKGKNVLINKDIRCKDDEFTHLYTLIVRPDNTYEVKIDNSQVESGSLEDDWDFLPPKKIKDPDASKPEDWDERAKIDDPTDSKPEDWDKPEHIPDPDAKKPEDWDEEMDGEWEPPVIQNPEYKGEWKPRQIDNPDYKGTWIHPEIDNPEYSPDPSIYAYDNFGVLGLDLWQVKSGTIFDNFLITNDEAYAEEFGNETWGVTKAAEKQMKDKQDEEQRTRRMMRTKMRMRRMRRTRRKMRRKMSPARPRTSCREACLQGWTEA

[9] = target: T5, CALRins5 (mutant calreticulin, 5 base pair insertion, Type 2) expressed with MPL on engineered cancer cells (UniProt P27797 18-417); assay: cell-based or functional assay
T5 sequence (looked up): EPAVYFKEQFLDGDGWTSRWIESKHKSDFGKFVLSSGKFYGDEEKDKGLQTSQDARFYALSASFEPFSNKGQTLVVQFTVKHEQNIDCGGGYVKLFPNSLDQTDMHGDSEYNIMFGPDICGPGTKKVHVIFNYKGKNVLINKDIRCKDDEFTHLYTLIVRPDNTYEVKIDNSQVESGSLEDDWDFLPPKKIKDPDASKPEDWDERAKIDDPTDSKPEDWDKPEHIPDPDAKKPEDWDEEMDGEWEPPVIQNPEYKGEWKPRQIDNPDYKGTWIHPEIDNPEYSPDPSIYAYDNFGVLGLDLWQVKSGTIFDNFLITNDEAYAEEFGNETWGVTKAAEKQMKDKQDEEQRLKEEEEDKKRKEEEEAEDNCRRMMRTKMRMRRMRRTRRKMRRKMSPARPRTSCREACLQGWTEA

[10] = target: T1, Flag/6xhis-CALRdel52 (CALRW12.007); assay: SPR
[11] = target: T2, Avi/his-CalR-Ins5 (CALRW28.004); assay: SPR
[12] = target: T6, wild-type CALR (CALRW14.001) (UniProt P27797 18-417, limits assumed); assay: SPR
T6 sequence (looked up): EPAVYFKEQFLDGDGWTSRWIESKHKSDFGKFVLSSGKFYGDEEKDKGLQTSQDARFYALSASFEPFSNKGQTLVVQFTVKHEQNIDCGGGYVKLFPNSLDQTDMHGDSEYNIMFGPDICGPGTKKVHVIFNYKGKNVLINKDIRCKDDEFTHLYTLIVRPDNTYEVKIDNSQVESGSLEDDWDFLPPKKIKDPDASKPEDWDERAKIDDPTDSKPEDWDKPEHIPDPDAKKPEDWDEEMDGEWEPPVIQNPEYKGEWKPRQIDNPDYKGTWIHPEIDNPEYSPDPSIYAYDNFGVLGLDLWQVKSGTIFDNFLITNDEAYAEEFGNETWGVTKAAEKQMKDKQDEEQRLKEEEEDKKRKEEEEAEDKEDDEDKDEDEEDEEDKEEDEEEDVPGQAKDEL

[13] = target: T3, CD3EG-HSA-6xHis (CD3W220.002); assay: SPR
[14] = target: T5, CALRins5 (mutant calreticulin, 5 base …); assay: flow cytometry on ELF-153 MPL CALRins5 cells, 1 h at 37 C, AF647 secondary antibody, Geometric mean
Experimental: FIGS. 27A-27F depict binding of different CALRmutxCD3 antibodies to CALRmut-negative or CALRmut-positive cells. Flow cytometry was used to evaluate CALRmutxCD3 binding to CALRmut-negative and CALRmut-positive cancer cells in vitro. CALRmutxCD3 antibodies were tested on a panel of cell lines, engineered to express MPL and CALRmut, after 1 hour 37° C. incubation, with subsequent incubation with secondary AF647-labeled antibody. Geometric mean fluorescence intensity of AF647 was measured to determine antibody binding.

% Active [2]: 97%
Kd [2]: 0.063 nM
% Active [3]: 94%
Kd [3]: 0.0356 nM
% Active [4]: 91%
Kd [4]: 0.272 nM
% Active [5]: 94%
Kd [5]: 0.07 nM
% Active [6]: 94%
Kd [6]: 0.0408 nM
% Active [7]: 95%
Kd [7]: 0.306 nM
% CD25+ CD8 T cells EC50 (nM), CALRmut patient blood, ELF-153 MPL CALRdel52 [8]: 2.46 nM
% CD25+ CD8 T cells EC50 (nM), healthy donor blood, ELF-153 MPL CALRdel52 [8]: 1 nM
% CD69+ CD8 T cells EC50 (nM), CALRmut patient blood, ELF-153 MPL CALRdel52 [8]: 3.06 nM
% CD69+ CD8 T cells EC50 (nM), healthy donor blood, ELF-153 MPL CALRdel52 [8]: 0.88 nM
% CD25+ CD8 T cells EC50 (nM), CALRmut patient blood, ELF-153 MPL CALRins5 [9]: 1.68 nM
% CD25+ CD8 T cells EC50 (nM), healthy donor blood, ELF-153 MPL CALRins5 [9]: 0.53 nM
% CD69+ CD8 T cells EC50 (nM), CALRmut patient blood, ELF-153 MPL CALRins5 [9]: 1.08 nM
% CD69+ CD8 T cells EC50 (nM), healthy donor blood, ELF-153 MPL CALRins5 [9]: 0.41 nM
Kd [10]: 0.0602 nM
Kd [11]: 0.0331 nM
binding result [12]: no binding (tested: 300 nM)
Kd [13]: 0.214 nM
EC50 (read off the curve) [14]: ~5 nM
B1: C3CRB73 CALRmut x CD3 bispecific antibody (bispecific antibody, human IgG1, kappa, L234A L235A)
heavy: EVQLLESGGGLVQPGGSLRLSCAVSGIDLSNNAISWVRQAPGKGLEYVGVIGNTGDTYYADSAKGRFTISRDSSKTTLYLQMNSLRAEDTAVYFCVRGPPSYSSSVKNIWGQGTLVTVSSASTKGPSVFPLAPSSKSTSGGTAALGCLVKDYFPEPVTVSWNSGALTSGVHTFPAVLQSSGLYSLSSVVTVPSSSLGTQTYICNVNHKPSNTKVDKKVEPKSCDKTHTCPPCPAPEAAGGPSVFLFPPKPKDTLMISRTPEVTCVVVSVSHEDPEVKFNWYVDGVEVHNAKTKPREEQYNSTYRVVSVLTVLHQDWLNGKEYKCKVSNKALPAPIEKTISKAKGQPREPQVYTLPPSREEMTKNQVSLSCAVKGFYPSDIAVEWESNGQPENNYKTTPPVLDSDGSFFLVSKLTVDKSRWQQGNVFSCSVMHEALHNRFTQKSLSLSPGK
light: DIQMTQSPSSVSASVGDRVTITCQSSQSVYNNNWLSWLQQKPGKAPKRLIYDASKLESGVPSRFSGSGSGTDFTLTISSVQPEDAATYYCAGGFTGNVYTFGGGTKVEIKRTVAAPSVFIFPPSDEQLKSGTASVVCLLNNFYPREAKVQWKVDNALQSGNSQESVTEQDSKDSTYSLSSTLTLSKADYEKHKVYACEVTHQGLSSPVTKSFNRGEC
scFv: DIQMTQSPSSLSASVGDRVTITCRARQSIGTAIHWYQQKPGCAPKLLIKYASESISGVPSRFSGSGSGTDFTLTISSLQPEDFATYYCQQSGSWPYTFGQGTKLEIKGGGSGGSGGCPPCGGSGGEVQLVESGGGLVKPGGSLRLSCAASGFTFSRYNMNWVRQAPGKGLEWVSSISTSSNYIYYADSVKGRFTFSRDNAKNSLDLQMSGLRAEDTAIYYCTRGWGPFDYWGCGTLVTVSSEPKSSDKTHTCPPCPAPEAAGGPSVFLFPPKPKDTLMISRTPEVTCVVVSVSHEDPEVKFNWYVDGVEVHNAKTKPREEQYNSTYRVVSVLTVLHQDWLNGKEYKCKVSNKALPAPIEKTISKAKGQPREPQVYTLPPSREEMTKNQVSLWCLVKGFYPSDIAVEWESNGQPENNYKTTPPVLDSDGSFFLYSKLTVDKSRWQQGNVFSCSVMHEALHNHYTQKSLSLSPGK
notes: IgG1-AAS; also called JNJ-88549968; CALRB421 Fab x CD3 spFv
cytotoxicity EC50, autologous assay, patient CALRmut CD34+ cells [1]: 0.94 nM
cytotoxicity EC90, autologous assay, patient CALRmut CD34+ cells [1]: 7.58 nM
maximal cytotoxicity, autologous assay, CD34+ cells of one donor without detected binding [1]: 68%
maximum cytotoxicity, autologous assay, patient CALRmut CD34+ cells [1]: 69%
